The target in one data set is c-Src SH2. Kind of data set: SH2 binding enrichment of the phosphorylated peptide, bacterial display (enrichment ratio); higher = better substrate or ligand; peptides without Tyr show the background.
In the next data set the target is Grb2 SH2 (UniProt P62993). The description is as above.
The target of another data set is SHP2-C SH2. The description is as above.
For a further data set, the system named is c-Abl (mouse). Kind of data set: phosphorylation enrichment, bacterial display (enrichment ratio); higher = better substrate or ligand; peptides without Tyr show the background.
In the next data set the target is Fes (UniProt P07332). The description is as above.
Another data set has as its system c-Src. The data set is described as above.
The next data set concerns Fer (mouse). Described as above.
The test system of the next data set is AncSZ. Described as above.
The target in another data set is Fyn (UniProt P06241). Described as above.
Chain of Fyn (P06241 whole entry, looked up): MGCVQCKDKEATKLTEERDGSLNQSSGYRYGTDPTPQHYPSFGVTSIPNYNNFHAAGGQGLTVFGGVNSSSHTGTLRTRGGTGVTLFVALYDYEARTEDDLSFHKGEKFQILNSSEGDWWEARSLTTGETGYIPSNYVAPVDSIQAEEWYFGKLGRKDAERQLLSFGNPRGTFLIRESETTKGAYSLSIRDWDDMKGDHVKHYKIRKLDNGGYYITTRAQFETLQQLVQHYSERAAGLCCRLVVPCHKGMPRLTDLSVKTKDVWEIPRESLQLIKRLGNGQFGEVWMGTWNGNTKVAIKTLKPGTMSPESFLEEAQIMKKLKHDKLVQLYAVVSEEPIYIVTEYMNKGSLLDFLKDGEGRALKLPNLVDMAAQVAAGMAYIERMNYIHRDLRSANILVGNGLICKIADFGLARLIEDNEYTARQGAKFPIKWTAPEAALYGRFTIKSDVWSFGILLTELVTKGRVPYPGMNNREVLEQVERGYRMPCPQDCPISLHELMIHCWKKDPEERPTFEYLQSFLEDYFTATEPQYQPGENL
In another data set the target is EPHB1 (UniProt P54762). The description is as above.
A further data set has as its target EPHB2 (UniProt P29323). The data set is described as above.
For a further data set, the target named is FGFR3 (UniProt P22607). Described as above.
The target of the next data set is Jak2 (UniProt O60674). Described as above.
Chain of Jak2 (O60674 whole entry, looked up): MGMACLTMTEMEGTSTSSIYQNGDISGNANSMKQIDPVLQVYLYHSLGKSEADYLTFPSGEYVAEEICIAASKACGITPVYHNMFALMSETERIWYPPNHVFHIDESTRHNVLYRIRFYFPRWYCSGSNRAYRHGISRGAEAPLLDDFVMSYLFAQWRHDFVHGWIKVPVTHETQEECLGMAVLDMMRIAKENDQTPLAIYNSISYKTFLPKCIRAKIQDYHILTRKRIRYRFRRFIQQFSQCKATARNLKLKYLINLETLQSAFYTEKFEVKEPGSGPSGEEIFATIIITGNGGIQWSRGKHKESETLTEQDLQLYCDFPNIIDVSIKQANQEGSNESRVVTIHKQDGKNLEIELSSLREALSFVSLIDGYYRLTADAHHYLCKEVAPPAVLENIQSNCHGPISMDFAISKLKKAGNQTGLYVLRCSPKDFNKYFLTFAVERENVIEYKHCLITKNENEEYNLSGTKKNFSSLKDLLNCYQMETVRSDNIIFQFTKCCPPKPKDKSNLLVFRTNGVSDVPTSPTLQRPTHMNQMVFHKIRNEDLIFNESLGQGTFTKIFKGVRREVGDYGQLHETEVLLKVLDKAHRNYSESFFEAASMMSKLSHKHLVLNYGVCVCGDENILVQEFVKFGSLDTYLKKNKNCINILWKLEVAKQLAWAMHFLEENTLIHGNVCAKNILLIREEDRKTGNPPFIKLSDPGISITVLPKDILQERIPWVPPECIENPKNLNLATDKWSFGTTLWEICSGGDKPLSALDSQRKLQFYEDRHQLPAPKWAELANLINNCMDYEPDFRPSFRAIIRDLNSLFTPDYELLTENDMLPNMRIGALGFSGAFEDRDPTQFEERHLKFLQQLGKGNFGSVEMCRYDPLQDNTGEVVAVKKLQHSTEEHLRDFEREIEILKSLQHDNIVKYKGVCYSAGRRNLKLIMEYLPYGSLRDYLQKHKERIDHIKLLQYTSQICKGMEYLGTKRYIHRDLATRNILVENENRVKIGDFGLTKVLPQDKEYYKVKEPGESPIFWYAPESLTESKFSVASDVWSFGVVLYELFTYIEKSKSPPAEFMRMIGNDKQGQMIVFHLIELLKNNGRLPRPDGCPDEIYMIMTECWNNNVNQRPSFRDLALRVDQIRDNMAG
For the next data set, the target named is FGFR1 (UniProt P11362). Described as above.
In a further data set the target is MERTK (UniProt Q12866). The description is as above.
Chain of MERTK (Q12866 whole entry, looked up): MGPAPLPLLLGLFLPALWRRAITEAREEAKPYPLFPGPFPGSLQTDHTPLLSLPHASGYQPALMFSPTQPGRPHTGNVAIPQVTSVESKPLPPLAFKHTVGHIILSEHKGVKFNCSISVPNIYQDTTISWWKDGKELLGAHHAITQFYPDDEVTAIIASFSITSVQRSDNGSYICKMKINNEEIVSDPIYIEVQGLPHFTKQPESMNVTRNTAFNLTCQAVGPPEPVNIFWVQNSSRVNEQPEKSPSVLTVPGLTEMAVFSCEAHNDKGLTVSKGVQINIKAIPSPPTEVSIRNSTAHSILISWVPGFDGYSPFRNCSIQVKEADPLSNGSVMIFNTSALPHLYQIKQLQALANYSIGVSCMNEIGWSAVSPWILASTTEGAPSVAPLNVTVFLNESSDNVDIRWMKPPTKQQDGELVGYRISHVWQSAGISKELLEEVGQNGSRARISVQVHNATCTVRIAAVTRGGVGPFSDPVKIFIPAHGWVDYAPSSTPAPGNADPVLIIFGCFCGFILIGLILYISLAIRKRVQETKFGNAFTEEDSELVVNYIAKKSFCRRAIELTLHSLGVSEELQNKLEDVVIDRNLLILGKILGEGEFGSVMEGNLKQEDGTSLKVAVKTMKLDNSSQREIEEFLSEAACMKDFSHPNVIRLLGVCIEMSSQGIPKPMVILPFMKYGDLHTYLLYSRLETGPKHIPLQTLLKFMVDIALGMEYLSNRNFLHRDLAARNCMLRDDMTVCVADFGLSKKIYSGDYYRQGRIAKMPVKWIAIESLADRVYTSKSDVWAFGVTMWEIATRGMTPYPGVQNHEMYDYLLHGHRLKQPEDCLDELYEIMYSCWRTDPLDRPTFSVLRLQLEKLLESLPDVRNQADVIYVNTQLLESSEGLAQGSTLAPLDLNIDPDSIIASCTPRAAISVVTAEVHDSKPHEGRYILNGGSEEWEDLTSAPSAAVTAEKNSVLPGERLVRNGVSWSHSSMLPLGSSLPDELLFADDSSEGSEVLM
Another data set deals with Hck (UniProt P08631). Described as above.
Chain of Hck (P08631 whole entry, looked up, the tested form may be a part): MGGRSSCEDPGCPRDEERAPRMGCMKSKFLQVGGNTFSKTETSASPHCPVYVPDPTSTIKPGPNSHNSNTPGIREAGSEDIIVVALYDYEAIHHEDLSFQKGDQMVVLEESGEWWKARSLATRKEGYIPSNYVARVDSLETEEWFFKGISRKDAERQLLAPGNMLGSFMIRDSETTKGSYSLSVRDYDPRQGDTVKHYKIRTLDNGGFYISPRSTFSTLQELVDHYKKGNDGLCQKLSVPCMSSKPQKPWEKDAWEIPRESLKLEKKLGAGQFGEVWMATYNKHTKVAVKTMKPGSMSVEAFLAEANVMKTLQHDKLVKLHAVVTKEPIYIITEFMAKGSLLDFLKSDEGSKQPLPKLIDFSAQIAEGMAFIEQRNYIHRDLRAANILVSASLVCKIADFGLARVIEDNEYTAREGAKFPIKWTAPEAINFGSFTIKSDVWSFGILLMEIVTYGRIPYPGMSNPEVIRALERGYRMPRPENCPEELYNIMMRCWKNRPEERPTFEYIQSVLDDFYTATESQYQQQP
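Throughout, for SH2 binding enrichment of the phosphorylated peptide, bacterial display: peptide library displayed on the E. coli surface as eCPX fusions, selected cells deep-sequenced, score is each peptide's frequency after selection divided by its frequency in the input.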
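Throughout, for phosphorylation enrichment, bacterial display: 11-residue human phosphosite peptides and single-mutation variants displayed on the E. coli surface, counted by deep sequencing, each peptide's frequency after selection divided by its frequency in the unselected input library; frequency after pTyr selection over input frequency; kinase dosed for 20-30% of maximal phosphorylation in three min.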

Chain of Grb2 SH2 (P62993 whole entry, looked up): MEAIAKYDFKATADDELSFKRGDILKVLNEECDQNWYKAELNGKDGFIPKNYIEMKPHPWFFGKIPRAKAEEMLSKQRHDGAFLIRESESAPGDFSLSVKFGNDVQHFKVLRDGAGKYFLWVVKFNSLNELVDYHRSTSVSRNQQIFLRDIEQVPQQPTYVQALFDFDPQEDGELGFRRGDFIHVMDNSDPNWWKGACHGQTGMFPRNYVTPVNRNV
Chain of EPHB2 (P29323 whole entry, looked up): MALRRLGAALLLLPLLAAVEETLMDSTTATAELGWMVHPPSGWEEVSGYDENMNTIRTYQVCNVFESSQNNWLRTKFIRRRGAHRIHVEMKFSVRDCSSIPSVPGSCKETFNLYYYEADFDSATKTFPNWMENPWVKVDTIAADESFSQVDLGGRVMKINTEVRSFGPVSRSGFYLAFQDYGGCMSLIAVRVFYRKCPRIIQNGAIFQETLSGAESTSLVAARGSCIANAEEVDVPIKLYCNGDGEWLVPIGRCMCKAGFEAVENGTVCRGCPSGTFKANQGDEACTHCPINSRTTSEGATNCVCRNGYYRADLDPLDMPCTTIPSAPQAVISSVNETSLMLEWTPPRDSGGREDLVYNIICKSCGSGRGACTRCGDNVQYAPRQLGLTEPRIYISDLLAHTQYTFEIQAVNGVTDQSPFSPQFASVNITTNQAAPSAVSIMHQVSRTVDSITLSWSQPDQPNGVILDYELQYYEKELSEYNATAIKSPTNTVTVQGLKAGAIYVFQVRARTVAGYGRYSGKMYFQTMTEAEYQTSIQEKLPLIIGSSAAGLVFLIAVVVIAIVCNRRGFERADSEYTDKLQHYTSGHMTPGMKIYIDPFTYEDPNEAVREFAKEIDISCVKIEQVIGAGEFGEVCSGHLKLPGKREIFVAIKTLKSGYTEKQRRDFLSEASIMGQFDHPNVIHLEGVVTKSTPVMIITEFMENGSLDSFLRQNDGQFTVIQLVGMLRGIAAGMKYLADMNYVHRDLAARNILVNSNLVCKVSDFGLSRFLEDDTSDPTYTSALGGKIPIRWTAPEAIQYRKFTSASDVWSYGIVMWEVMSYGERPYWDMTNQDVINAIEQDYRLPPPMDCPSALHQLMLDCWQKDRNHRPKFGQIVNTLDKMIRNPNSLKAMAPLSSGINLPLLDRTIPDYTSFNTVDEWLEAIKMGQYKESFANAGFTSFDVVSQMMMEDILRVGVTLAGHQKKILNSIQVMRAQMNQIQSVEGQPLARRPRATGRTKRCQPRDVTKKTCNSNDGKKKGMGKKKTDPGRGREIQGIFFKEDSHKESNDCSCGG

As to IKKFKYGIEEH [GJA1_Y137], the SH2 binding enrichment with c-Src SH2 is 0.502; in the data set with Grb2 SH2 it was 0.644; in the data set with SHP2-C SH2, 0.61. In addition, the phosphorylation enrichment in the data set with c-Abl (mouse) was 0.498; in the data set with Fes, 0.697; in the data set with c-Src it was 0.336; with Fer (mouse), 0.382; in the data set on AncSZ, 0.836; with Fyn it was 0.374. Further, the phosphorylation enrichment is 0.42 in the data set with EPHB1; 0.497 in the data set with EPHB2; 0.476 with FGFR3; 0.582 in the data set with Jak2; 0.4 in the data set with FGFR1; 0.323 with MERTK. Moreover, the phosphorylation enrichment in the data set with Hck was determined as 0.402.
In the case of IKKLIYVYLVI [JAGN1_Y42_H44Y], the SH2 binding enrichment in the data set with c-Src SH2 is 0.612; in the data set with Grb2 SH2 it was 1.4; with SHP2-C SH2, 1.06. The phosphorylation enrichment with c-Abl (mouse) stood at 0.955; with Fes, 0.97; in the data set with c-Src, 0.475; with Fer (mouse), 0.323; with AncSZ it was 0.873; in the data set with Fyn it was 0.412. For the same sequence, the phosphorylation enrichment with EPHB1 came out at 0.466; with EPHB2 it was 0.411; with FGFR3 it was 0.452; with Jak2 it was 0.817; with FGFR1, 0.351; with MERTK, 0.427. Moreover, the phosphorylation enrichment with Hck amounted to 0.43.
For ILDEAYVMAGA [ERBB2_Y772_V777A], the SH2 binding enrichment with c-Src SH2 was found to be 0.543; with Grb2 SH2, 0.736; with SHP2-C SH2 it was 0.857. Further, the phosphorylation enrichment was found to be 0.761 with c-Abl (mouse); 1.27 in the data set with Fes; 0.744 in the data set on c-Src; 0.516 in the data set with Fer (mouse); 1.48 in the data set on AncSZ; 0.596 in the data set with Fyn. The phosphorylation enrichment with EPHB1 worked out at 0.662; with EPHB2 it was 0.67; in the data set with FGFR3, 0.789; with Jak2, 0.986; with FGFR1, 0.639; with MERTK, 0.507. For the same sequence, in the data set with Hck, the phosphorylation enrichment is 0.537.
Take ILTLKYPIEHG [ACTA1_Y71]: the SH2 binding enrichment with c-Src SH2 is 0.502; in the data set with Grb2 SH2, 0.816; with SHP2-C SH2, 0.806. The phosphorylation enrichment in the data set with c-Abl (mouse) stood at 0.57; with Fes it was 0.78; in the data set with c-Src it was 0.376; with Fer (mouse) it was 0.391; in the data set on AncSZ, 0.716; with Fyn it was 0.437. In addition, the phosphorylation enrichment was 0.476 with EPHB1; 0.485 with EPHB2; 0.592 in the data set with FGFR3; 0.584 with Jak2; 0.47 with FGFR1; 0.391 with MERTK. In the data set with Hck, the phosphorylation enrichment stood at 0.453.
Turning to ILTLKYPIELG [ACTA1_Y71_H75L], the SH2 binding enrichment with c-Src SH2 was found to be 0.731; with Grb2 SH2, 1.14; in the data set with SHP2-C SH2, 0.94. In addition, the phosphorylation enrichment was 0.476 in the data set with c-Abl (mouse); 0.986 in the data set with Fes; 0.352 in the data set on c-Src; 0.457 with Fer (mouse); 0.886 in the data set on AncSZ; 0.435 with Fyn. The phosphorylation enrichment was 0.578 in the data set with EPHB1; 0.572 with EPHB2; 0.601 in the data set with FGFR3; 0.74 in the data set with Jak2; 0.47 with FGFR1; 0.352 with MERTK. Besides, in the data set with Hck, the phosphorylation enrichment worked out at 0.518.
As to INMKKYCKKDF [NTN1_Y490_YF], the SH2 binding enrichment with c-Src SH2 turned out to be 0.807; with Grb2 SH2, 0.953; in the data set with SHP2-C SH2, 1.13. The phosphorylation enrichment in the data set on c-Abl (mouse) is 0.734; with Fes it was 0.948; in the data set with c-Src, 0.491; in the data set on Fer (mouse), 0.572; with AncSZ it was 0.854; in the data set with Fyn it was 0.438. Moreover, the phosphorylation enrichment with EPHB1 stood at 0.45; with EPHB2, 0.522; with FGFR3 it was 0.757; with Jak2 it was 0.689; with FGFR1, 0.56; in the data set with MERTK it was 0.659. Further, the phosphorylation enrichment with Hck was 0.437.
On to IPGMEYLVSII [TNC_Y1775_V1773M], for which the SH2 binding enrichment with c-Src SH2 was determined as 0.641; with Grb2 SH2, 0.991; in the data set with SHP2-C SH2 it was 1.15. For the same sequence, the phosphorylation enrichment in the data set on c-Abl (mouse) was 0.825; with Fes it was 1.41; in the data set with c-Src it was 0.583; with Fer (mouse) it was 0.722; in the data set on AncSZ it was 1.44; with Fyn, 0.612. Besides, the phosphorylation enrichment in the data set with EPHB1 was determined as 0.65; with EPHB2, 0.855; in the data set with FGFR3, 0.889; with Jak2, 1.11; with FGFR1, 0.72; in the data set with MERTK, 0.565. The phosphorylation enrichment in the data set with Hck was 0.522.
Regarding IRQDHYESLKE [MTR_Y921], the SH2 binding enrichment with c-Src SH2 worked out at 5.75; in the data set with Grb2 SH2 it was 0.961; with SHP2-C SH2, 0.771. The phosphorylation enrichment in the data set on c-Abl (mouse) is 0.56; with Fes it was 0.873; in the data set on c-Src, 0.48; in the data set on Fer (mouse), 0.483; in the data set with AncSZ, 0.755; with Fyn, 0.494. Further, the phosphorylation enrichment was 0.529 with EPHB1; 0.482 with EPHB2; 0.693 with FGFR3; 0.733 in the data set with Jak2; 0.45 in the data set with FGFR1; 0.509 with MERTK. Also, the phosphorylation enrichment with Hck came to 0.594.
ISISPYPAILH [IFT80_Y588_T586S]: the SH2 binding enrichment turned out to be 0.408 with c-Src SH2, 0.724 in the data set with Grb2 SH2 and 0.45 in the data set with SHP2-C SH2. Also, the phosphorylation enrichment with c-Abl (mouse) turned out to be 0.557; with Fes it was 0.961; with c-Src, 0.358; in the data set with Fer (mouse), 0.418; with AncSZ, 1.01; in the data set with Fyn, 0.343. Besides, the phosphorylation enrichment in the data set with EPHB1 came out at 0.428; with EPHB2, 0.401; with FGFR3, 0.547; in the data set with Jak2, 0.765; with FGFR1 it was 0.341; in the data set with MERTK, 0.354. Also, the phosphorylation enrichment with Hck turned out to be 0.377.

The values above are taken from the supplement of paper PMC10065799, “High-throughput profiling of sequence recognition by tyrosine kinases and SH2 domains using bacterial peptide display” (eLife, 2023).
